Measurements from article PMC11404569, “ECT2 peptide sequences outside the YTH domain regulate its m6A-RNA binding”.

T1: ECT2-Fl (untagged) (Arabidopsis thaliana, UniProt Q9LJE5 1-667)
T1 sequence: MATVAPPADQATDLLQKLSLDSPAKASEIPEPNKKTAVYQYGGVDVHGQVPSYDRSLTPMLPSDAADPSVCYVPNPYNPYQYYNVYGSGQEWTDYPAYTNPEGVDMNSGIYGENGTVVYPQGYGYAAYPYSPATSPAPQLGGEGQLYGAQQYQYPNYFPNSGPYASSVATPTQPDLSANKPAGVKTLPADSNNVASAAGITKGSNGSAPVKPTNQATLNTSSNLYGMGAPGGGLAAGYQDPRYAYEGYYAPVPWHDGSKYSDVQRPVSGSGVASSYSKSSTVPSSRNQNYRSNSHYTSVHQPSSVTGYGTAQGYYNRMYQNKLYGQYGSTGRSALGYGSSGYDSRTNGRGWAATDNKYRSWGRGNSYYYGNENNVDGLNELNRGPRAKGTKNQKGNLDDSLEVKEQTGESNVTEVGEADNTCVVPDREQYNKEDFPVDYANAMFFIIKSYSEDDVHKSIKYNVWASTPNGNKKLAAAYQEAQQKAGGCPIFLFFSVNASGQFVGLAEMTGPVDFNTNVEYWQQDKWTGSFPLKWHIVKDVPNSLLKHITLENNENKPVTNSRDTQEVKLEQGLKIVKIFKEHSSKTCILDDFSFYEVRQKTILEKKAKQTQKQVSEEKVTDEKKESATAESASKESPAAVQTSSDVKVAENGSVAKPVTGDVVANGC

T2: ECT2-108 (Arabidopsis thaliana, UniProt Q9LJE5 108-667)
T2 sequence: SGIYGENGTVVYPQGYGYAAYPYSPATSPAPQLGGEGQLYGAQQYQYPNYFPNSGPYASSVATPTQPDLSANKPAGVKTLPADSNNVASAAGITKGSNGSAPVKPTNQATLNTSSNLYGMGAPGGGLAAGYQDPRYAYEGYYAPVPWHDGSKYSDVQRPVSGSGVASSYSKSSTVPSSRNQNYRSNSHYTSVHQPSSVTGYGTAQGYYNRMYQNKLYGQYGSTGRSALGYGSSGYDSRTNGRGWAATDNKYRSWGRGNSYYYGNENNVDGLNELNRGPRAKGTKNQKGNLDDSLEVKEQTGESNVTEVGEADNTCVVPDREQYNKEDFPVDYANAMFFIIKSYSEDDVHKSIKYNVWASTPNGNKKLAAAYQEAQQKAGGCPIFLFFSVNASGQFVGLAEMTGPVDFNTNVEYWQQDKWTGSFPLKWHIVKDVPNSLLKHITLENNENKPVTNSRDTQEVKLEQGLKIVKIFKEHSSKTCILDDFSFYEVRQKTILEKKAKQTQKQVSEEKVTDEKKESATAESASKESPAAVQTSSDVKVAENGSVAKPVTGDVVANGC

T3: ECT2-303 (Arabidopsis thaliana, UniProt Q9LJE5 303-667)
T3 sequence: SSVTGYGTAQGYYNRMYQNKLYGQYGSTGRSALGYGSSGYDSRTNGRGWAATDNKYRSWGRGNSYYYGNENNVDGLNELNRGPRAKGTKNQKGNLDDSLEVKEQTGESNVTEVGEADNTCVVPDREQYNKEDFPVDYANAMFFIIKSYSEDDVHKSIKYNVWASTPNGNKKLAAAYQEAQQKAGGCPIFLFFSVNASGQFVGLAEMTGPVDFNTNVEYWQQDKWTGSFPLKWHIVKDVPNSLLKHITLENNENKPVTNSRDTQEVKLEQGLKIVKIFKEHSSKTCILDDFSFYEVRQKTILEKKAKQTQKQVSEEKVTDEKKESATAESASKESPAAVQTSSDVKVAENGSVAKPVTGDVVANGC

T4: ECT2-444 (Arabidopsis thaliana, UniProt Q9LJE5 444-580)
T4 sequence: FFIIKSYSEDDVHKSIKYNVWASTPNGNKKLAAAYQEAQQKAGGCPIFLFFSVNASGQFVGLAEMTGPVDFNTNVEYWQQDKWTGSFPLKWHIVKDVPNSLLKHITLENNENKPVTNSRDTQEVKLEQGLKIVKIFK

T5: ECT2-204 (Arabidopsis thaliana, UniProt Q9LJE5 204-667)
T5 sequence: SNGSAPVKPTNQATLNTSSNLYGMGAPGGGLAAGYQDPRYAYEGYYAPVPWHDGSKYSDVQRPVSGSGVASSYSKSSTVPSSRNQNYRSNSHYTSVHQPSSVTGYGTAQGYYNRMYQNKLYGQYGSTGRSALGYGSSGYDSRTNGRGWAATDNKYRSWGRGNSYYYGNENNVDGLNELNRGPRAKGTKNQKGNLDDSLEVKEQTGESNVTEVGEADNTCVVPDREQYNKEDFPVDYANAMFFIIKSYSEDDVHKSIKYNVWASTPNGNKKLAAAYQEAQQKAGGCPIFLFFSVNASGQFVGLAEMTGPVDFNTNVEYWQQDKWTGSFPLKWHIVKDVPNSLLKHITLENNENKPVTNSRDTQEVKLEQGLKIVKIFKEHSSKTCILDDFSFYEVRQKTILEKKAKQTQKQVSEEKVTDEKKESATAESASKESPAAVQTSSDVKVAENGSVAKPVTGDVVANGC

T6: ECT2-376 (Arabidopsis thaliana, UniProt Q9LJE5 376-667)
T6 sequence: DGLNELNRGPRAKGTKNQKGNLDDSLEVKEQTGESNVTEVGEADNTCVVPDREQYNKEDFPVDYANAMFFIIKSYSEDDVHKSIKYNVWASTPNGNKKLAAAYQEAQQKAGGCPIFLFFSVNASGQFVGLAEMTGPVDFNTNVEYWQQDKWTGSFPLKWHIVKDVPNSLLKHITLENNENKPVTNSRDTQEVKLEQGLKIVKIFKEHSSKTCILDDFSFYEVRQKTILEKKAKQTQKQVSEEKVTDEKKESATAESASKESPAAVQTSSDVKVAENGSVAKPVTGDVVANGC

T7: ECT2-424 (His-SUMO) (Arabidopsis thaliana, UniProt Q9LJE5 424-610)
T7 sequence: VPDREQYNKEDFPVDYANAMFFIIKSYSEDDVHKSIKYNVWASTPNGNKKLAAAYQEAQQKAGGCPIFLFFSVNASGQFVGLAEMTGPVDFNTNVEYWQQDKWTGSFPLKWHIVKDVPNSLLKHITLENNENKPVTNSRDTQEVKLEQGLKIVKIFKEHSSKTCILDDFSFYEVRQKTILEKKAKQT

B1: Probe I (A) (ssRNA)
RNA: AUGGGCCGUUCAUCUGCUAAAAGGACUGCUUUUGGGGCUUGU
modifications: thiol-protected 3' bases (*G*U)
B2: Probe I m6A (ssRNA)
RNA: B1 RNA
modifications: m6A at position 25; thiol-protected 3' bases (*G*U)
B3: Probe IV (A) (ssRNA)
RNA: AUGUGUCUUUCAUGUACUAAAAGGACUGCUCUUGUGUCUUGU
modifications: thiol-protected 3' bases (*G*U)
B4: Probe IV m6A (ssRNA)
RNA: B3 RNA
modifications: m6A at position 25; thiol-protected 3' bases (*G*U)
B5: Probe III (A) (ssRNA)
RNA: AAGGGCCGAACAACAGCAAAAAGGACUGCAAAAGGGGCAAGA
modifications: thiol-protected 3' bases (*G*A)
B6: Probe III m6A (ssRNA)
RNA: B5 RNA
modifications: m6A at position 25; thiol-protected 3' bases (*G*A)

Columns and labels:
ECT2-Fl (untagged) = molecular target: T1, ECT2-Fl (untagged); assay: EMSA; up to 500 nM; EMSA: 10 nM FAM-RNA; binding buffer 10 mM HEPES pH 8.0, 50 mM KCl, 1 mM EDTA, 0.05% Triton X-100, 5% glycerol, 10 µg/mL salmon DNA, 1 mM DTT, 40 U/mL RNasin; 20 min on ice; native 8% acrylamide TBE gel at 4°C; conditions: protein: recombinant; tags: none (His-SUMO cleaved by TEV); label: 5' FAM
ECT2-108 [1] = molecular target: T2, ECT2-108; assay: as above; conditions: protein: recombinant; tags: N-terminal His-SUMO; label: 5' FAM
ECT2-303 [2] = molecular target: T3, ECT2-303; assay: as above; conditions: protein: recombinant; tags: N-terminal His-SUMO; label: 5' FAM
[3] = molecular target: YTHDC1 extended YTH (hDC1) (Homo sapiens, UniProt Q96MU7 345-507); assay: EMSA; up to 400 nM; EMSA: 10 nM FAM-RNA; binding buffer 10 mM HEPES pH 8.0, 50 mM KCl, 1 mM EDTA, 0.05% Triton X-100, 5% glycerol, 10 µg/mL salmon DNA, 1 mM DTT, 40 U/mL RNasin; 20
ECT2-444 = molecular target: T4, ECT2-444; assay: EMSA; up to 800 nM; EMSA: 10 nM FAM-RNA; binding buffer 10 mM HEPES pH 8.0, 50 mM KCl, 1 mM EDTA, 0.05% Triton X-100, 5% glycerol, 10 µg/mL salmon DNA, 1 mM DTT, 40 U/mL RNasin; 20 min on ice; native 8% acrylamide TBE gel at 4°C; conditions: protein: recombinant; tags: N-terminal His-SUMO; label: 5' FAM
ECT2-204 = molecular target: T5, ECT2-204; assay: EMSA; EMSA: 10 nM FAM-RNA; binding buffer 10 mM HEPES pH 8.0, 50 mM KCl, 1 mM EDTA, 0.05% Triton X-100, 5% glycerol, 10 µg/mL salmon DNA, 1 mM DTT, 40 U/mL RNasin; 20 min on ice; native 8% acrylamide TBE gel at 4°C; conditions: protein: recombinant; tags: N-terminal His-SUMO; label: 5' FAM
ECT2-303 [4] = molecular target: T3, ECT2-303; assay: EMSA; apparent Kd from free probe; EMSA: 10 nM FAM-RNA; binding buffer 10 mM HEPES pH 8.0, 50 mM KCl, 1 mM EDTA, 0.05% Triton X-100, 5% glycerol, 10 µg/mL salmon DNA, 1 mM DTT, 40 U/mL RNasin; 20 min on ice; native 8% acrylamide TBE gel at 4°C; conditions: protein: recombinant; tags: N-terminal His-SUMO; label: 5' FAM
ECT2-108 [5] = molecular target: T2, ECT2-108; assay: EMSA; affinity similar to ECT2-204; EMSA: 10 nM FAM-RNA; binding buffer 10 mM HEPES pH 8.0, 50 mM KCl, 1 mM EDTA, 0.05% Triton X-100, 5% glycerol, 10 µg/mL salmon DNA, 1 mM DTT, 40 U/mL RNasin; 20 min on ice; native 8% acrylamide TBE gel at 4°C; conditions: protein: recombinant; tags: N-terminal His-SUMO; label: 5' FAM
ECT2-376 = molecular target: T6, ECT2-376; assay: EMSA; no stable complex; EMSA: 10 nM FAM-RNA; binding buffer 10 mM HEPES pH 8.0, 50 mM KCl, 1 mM EDTA, 0.05% Triton X-100, 5% glycerol, 10 µg/mL salmon DNA, 1 mM DTT, 40 U/mL RNasin; 20 min on ice; native 8% acrylamide TBE gel at 4°C; conditions: protein: recombinant; tags: N-terminal His-SUMO; label: 5' FAM
ECT2-424 (His-SUMO) = molecular target: T7, ECT2-424 (His-SUMO); assay: as above; conditions: protein: recombinant; tags: N-terminal His-SUMO; label: 5' FAM

| Binder | binding result (ECT2-303 [2]) | Kd (ECT2-303 [4]) [nM] | binding result (ECT2-376) | binding result (ECT2-424 (His-SUMO)) | also measured |
| --- | --- | --- | --- | --- | --- |
| B1 | no binding | – | – | – | binding result (ECT2-Fl (untagged)): no binding; binding result (ECT2-108 [1]): no binding |
| B2 | – | 55 ± 7 | – | – | binding result [3]: binds; binding result (ECT2-444): no binding; binding signal (ECT2-204): ~5 fold Kd vs ECT2-303; binding signal (ECT2-108 [5]): ~3 fold Kd vs ECT2-Fl |
| B3 | – | – | no binding | no binding | – |
| B4 | – | 85 ± 5 | – | – | – |
| B5 | no binding | – | no binding | no binding | – |
| B6 | – | 39 ± 2 | – | – | – |
